Experimental data from paper PMC11374337 (2024).
Each block holds one molecule with its values, some of them ahead of it.

How the values were obtained:
[1] = target: paxillin LIM2/3 tandem domain (aa380-499) (human) (UniProt P49023); experiment: NMR titration; 1H-15N HSQC, 250-300 μM 15N-labelled paxillin LIM2/3 (wt or 4A), unlabelled integrin β3 tail added; 298 K, 50 mM Na2HPO4, 150 mM NaCl, 0.1 mM ZnSO4, 1 mM DTT, 5% D2O, pH 7.5; global fit of CSPs
[2] = target: cytoplasmic tail of human integrin β1 (aa758-798) (human) (UniProt P05556); experiment: NMR titration; 1H-15N HSQC, 300 μM 15N-labelled integrin β tail, unlabelled paxillin LIM2/3 added; 298 K, 50 mM Na2HPO4, 150 mM NaCl, 0.1 mM ZnSO4, 1 mM DTT, 5% D2O, pH 6.2; global fit of CSPs to a one site binding model
[3] = target: cytoplasmic tail of human integrin β3 (aa748-788) (human) (UniProt P05106); experiment: as above
ITGB1 = target: T1, ITGB1 (Homo sapiens (Human), UniProt P05556); experiment: NMR
T1 chain: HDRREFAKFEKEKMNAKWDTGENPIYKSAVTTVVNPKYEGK

ITGB3 = target: T2, ITGB3 (Homo sapiens (Human), UniProt P05106); experiment: NMR
T2 chain: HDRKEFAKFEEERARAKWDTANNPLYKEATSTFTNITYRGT

Kd [1]: 532 µM
Molecule: cytoplasmic tail of human integrin β3 (aa748-788) (from UniProt P05106 748-788) (domain or fragment)

Kd [2]: 52 µM
Kd [3]: 528 µM
fraction bound at the end of the titration [3]: 70%
Molecule: paxillin LIM2/3 tandem domain (aa380-499) (from UniProt P49023-2 380-499) (domain or fragment)

Kd (ITGB1): 52 µM
Kd (ITGB3): 528 µM
B1: paxillin (protein)
chain: SPRCYYCNGPILDKVVTALDRTWHPEHFFCAQCGAFFGPEGFHEKDGKAYCRKDYFDMFAPKCGGCARAILENYISALNTLWHPECFVCRECFTPFVNGSFFEHDGQPYCEVHYHERRGS
